The supplement of paper PMC10567573

B1: ZNF277 (parent)
chain: ILREELQKQRLREILEQQQQERND

Variants of: B1
Test: protein stability index of a GFP-peptide fusion (GPS, HEK-293T) (PSI 1-6); higher = more stable
Details: c terminus: a fixed tail appended
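Also: lentivirally expressed fusions sorted by FACS into six bins by GFP to DsRed ratio, PSI derived from sequencing read proportions per bin multiplied by bin number.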

Protein stability index of substitutions, site by site:
L15: R 4.82; W 4.14; V 4.37; T 4.67; S 4.99; Q 5.14; Y 4.18
Q18: E 4.93; I 2.52; M 3.59; N 4.37; T 3.57; L 3.37; R 4.97; G 4.57; D 4.46; A 3.98; P 4.68; Y 2.9; S 3.99; V 3.83; W 4.15; K 3.72; F 4.37; C 3.31
D24: K 3.83; A 3.47; H 3.16; C 3.91; Y 3.7; Q 4.18; M 4.14; E 4.12; R 3.48; F 3.26; I 3.64; G 3.77; P 3.85; V 4.05; N 4.08; W 2.73; T 4.01; L 4.08; S 3.68
Q17: A 3.83; S 4.63; M 3.88; V 4.22; P 4.2; F 3.87; W 3.49; I 3.33; G 4.25; T 4.16; R 3.77; E 4.82; N 4.51; L 4.29; C 3.6; D 4.54; H 4.38
E21: Q 3.38; M 3.73; G 4.04; A 4.39; P 3.04; I 2.94; H 4.61; S 4.41; Y 3.73; V 3.2; K 4.26; N 3.9; W 2.95; R 2.69; L 3.52; F 3.4; C 3.04; T 4.09; D 4.22
R22: C 4.48; S 4.73; E 4.61; H 4.4; T 4.76; V 3.53; Q 4.44; Y 4.54; D 4.92; N 4.75; G 4.67; I 3.81; A 4.4; P 4.57; L 4.46; W 3.72; K 4.63; M 4.45; F 3.81
Q20: A 4.93; G 4.22; L 4.05; H 3.94; T 3.29; V 3.74; E 5.03; Y 4.16; N 4.3; K 4.51; C 4.2; M 3.96; F 3.44; R 4.41; P 4.17; S 4.37; I 4.36; W 3.18
N23: S 4.05; G 3.98; I 4.02; F 3.73; K 4.1; Q 4.13; D 4.96; P 4.47; W 3.22; H 4.04; Y 3.56; C 3.98; T 4.37; R 3.75; V 3.89; A 4.53; L 3.92; E 4.59; M 4.14
Q19: F 2.91; K 3.7; A 4.13; E 3.98; D 4.4; G 4.57; N 3.5; W 2.85; L 3.87; S 4.41; C 4.45; P 4.29; H 4.67; M 3.35; V 4.44; Y 3.98; T 3.64
E16: A 3.07; D 4.61; Q 3.77; L 3.63; P 4.8; H 3.87; M 3.81; I 3.74; W 2.87; N 3.89; R 3.53; V 3.9; K 3.83; F 3.66
